# Laboratory results published in patent publication US20140079717A1, “Compositions and Methods to Prevent Cell Transformation and Cancer Metastasis” (CORNELL UNIVERSITY, priority 2011, published 2014).
# B1: tTG WT: purified recombinant wild-type tissue transglutaminase (protein, UniProt P21980 2-687, looked up)
# Protein-glutamine …: AEELVLERCDLELETNGRDHHTADLCREKLVVRRGQPFWLTLHFEGRNYEASVDSLTFSVVTGPAPSQEAGTKARFPLRDAVEEGDWTATVVDQQDCTLSLQLTTPANAPIGLYRLSLEASTGYQGSSFVLGHFILLFNAWCPADAVYLDSEEERQEYVLTQQGFIYQGSAKFIKNIPWNFGQFEDGILDICLILLDVNPKFLKNAGRDCSRRSSPVYVGRVVSGMVNCNDDQGVLLGRWDNNYGDGVSPMSWIGSVDILRRWKNHGCQRVKYGQCWVFAAVACTVLRCLGIPTRVVTNYNSAHDQNSNLLIEYFRNEFGEIQGDKSEMIWNFHCWVESWMTRPDLQPGYEGWQALDPTPQEKSEGTYCCGPVPVRAIKEGDLSTKYDAPFVFAEVNADVVDWIQQDDGSVHKSINRSLIVGLKISTKSVGRDEREDITHTYKYPEGSSEEREAFTRANHLNKLAEKEETGMAMRIRVGQSMNMGSDFDVFAHITNNTAEEYVCRLLLCARTVSYNGILGPECGTKYLLNLNLEPFSEKSVPLCILYEKYRDCLTESNLIKVRALLVEPVINSYLLAERDLYLENPEIKIRILGEPKQKRKLVAEVSLQNPLPVALEGCTFTVEGAGLTEEQKTVEIPDPVEAGEEVKVRMDLLPLHMGLHKLVVNFESDKLKAVKGFRNVIIGPA
# Assay: In vitro liposome fractionation assay
# Type: binding
# Conditions: 5 μg protein, 15 minute incubation, centrifugation, SDS-PAGE
# Description: FIG. 51. Recombinant tTG can associate with lipid vesicles lacking any protein content. Synthetic liposomes were prepared by extrusion and then equal amounts of this preparation were combined with either 5 μg recombinant tTG (tTG WT) or 5 μg bovine serum albumin (BSA). After a 15 minute incubation, the liposomes were pelleted by centrifugation, and the resulting supernatant (Sup) and liposome (Pellet) fractions were resolved by SDS-PAGE. The gel was then stained with Quick Blue to detect the proteins. A lane containing recombinant tTG (Rec. tTG WT) was included as a standard.
# To obtain the results depicted in FIG. 51, the following procedures were used. In vitro liposome fractionation assays—Synthetic liposomes were prepared from a lipid mixture containing 35% phosphatidylethanolamine, 25% phosphatidylserine, 5% phosphatidylinositol, and 35% cholesterol re-suspended in TBSM buffer (20 mM Tris, pH 7.5, 150 mM NaCl, and 2 mM MgCl2). The lipids were extruded through an 8 micron filter, pelleted by centrifugation at 13,000 rpm for 15 minutes, and re-suspended in TBSM buffer. Equal amounts of the lipid preparation were then incubated with either recombinant wild-type tTG or BSA for 15 minutes, followed by centrifugation at 13,000 rpm for 10 minutes at room temperature. […]
molecule,measurement,value
B1,protein pelleted with synthetic liposomes,nearly all
